Experimental findings from the RNAGym collection of RNA variant scans (doi:10.1093/molbev/msab373) are described below.

Sequences and labels used below:
B1: Azoarcus group I ribozyme (parent)
chain: GUGCCUUGCGCCGGGAAACCACGCAAGGGAUGGUGUCAAAUUCGGCGAAACCUAAGCGCCCGCCCGGGCGUAUGGCAACGCCGAGCCAAGCUUCGGCGCCUGCGCCGAUGAAGGUGUAGAGACUAGACGGCACCCACCUAAGGCAAACGCUAUGGUGAAGGCAUAGUCCAGGGAGUGGCGAAAGUCACACAAACCGG

In the data set the parent is B1. Nature of the data set: reverse-splicing fitness (ratio to wild type); higher = more active; in vitro selection; Mg2+ level not given. A digest of the protocol: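 An in vitro group I ribozyme library with randomized positions was T7-transcribed and gel-purified. In triplicate, 10 pmol RNA in EPPS pH 7.5 was reacted with 50 pmoles of a 30-nt RNA substrate for 1 h at 37 °C across several added MgCl2 levels (1–48 mM), then stopped with EDTA. Products were reverse transcribed from a substrate-complementary primer, PCR-amplified and sequenced (HiSeq 4000). Fitness is a variant's read proportion after selection over that before, normalised to wild type.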
C82U A111C A120U C150U: the reverse-splicing fitness came out at 0.0166.
As for C82U A111C A120U A145U C169G U176C, the figure is 0.00286.
Consider C82U A111C A120U A145U C169G U176G, for which the reverse-splicing fitness was found to be 0.00187.
As for C82U A111C A120U A145U C169G U176A, the figure is 0.00259; as for C82U A111C A120U A145U C150U C169A U176C, 0.00282; as for C82U A111C A120U A145U C150U C169A U176A, 0.00306.
The result for C82U A111C A120U A145U C150U C169A U176G reads 0.00229.
For the variant C82U A111C A145C C150A C169A U176G, the reverse-splicing fitness amounted to 0.00794.
As to C82U A111C A145C C150A C169A U176A, the reverse-splicing fitness was 0.0134.
The result for C82U A111C A145C C150A C169A U176C reads 0.00874; that for C82U A111C A145U C150G C169A U176A, 0.00909.
As for C82U A111C A145U C150G C169A U176G, the figure is 0.00824.
The result for C82U A111C A145U C150G C169A U176C reads 0.0103.
Consider C82U A111C A145G C150G C169A U176G, for which the reverse-splicing fitness turned out to be 0.0072.
In the case of C82U A111C A145G C150G C169A U176A, the reverse-splicing fitness was determined as 0.0123.
The result for C82U A111C A145G C150G C169A U176C reads 0.0111; that for C82U A111C A145C C150G C169A U176C, 0.0077.
The result for C82U A111C A145C C150G C169A U176A reads 0.00873.
The result for C82U A111C A145C C150G C169A U176G reads 0.00657; that for C82U A111C A145U C169A, 0.00715.
Turning to C82U A111C A145U C169G, the reverse-splicing fitness amounted to 0.0103.
As for C82U A111C A120U A145G C150U C169G U176G, the figure is 0.0025; as for C82U A111C A120U A145G C150U C169G U176C, 0.00346; as for C82U A111C A120U A145G C150U C169U, 0.00521.
As for C82U A111C A145U C150G, the figure is 0.0215.
As for C82U A111C A145U C150U, the figure is 0.148; as for C82U A111C A145U C150A, 0.0231.
For the variant C82U A111C A120U A145U C150A C169A U176G, the reverse-splicing fitness amounted to 0.00255.
As for C82U A111C A120U A145U C150A C169A U176A, the figure is 0.00217.
The result for C82U A111C A120U A145U C150A C169A U176C reads 0.00253; that for C82U A111C A120U C150A C169A, 0.00472.
C82U A111C A120U C150A C169U: the reverse-splicing fitness turned out to be 0.00491.
As for C82U A111C A120U C150A C169G, the reverse-splicing fitness came out at 0.00399.
The result for C82U A111C A120U C150G C169U U176C reads 0.00516; that for C82U A111C A120U C150G C169U U176G, 0.00265.
As for C82U A111C A120U C150G C169U U176A, the figure is 0.00421; as for C82U A111C A120U C169A U176G, 0.00185.
The result for C82U A111C A120U C169A U176C reads 0.00352; that for C82U A111C A120U C169A U176A, 0.00309; that for C82U A111C A145G U176C, 0.113.
C82U A111C A145G U176G: the reverse-splicing fitness worked out at 0.0201.
C82U A111C A145G U176A: the reverse-splicing fitness was found to be 0.0861.
The result for C82U A111C A145G C150A C169A reads 0.0093; that for C82U A111C A145G C150A C169U, 0.0103; that for C82U A111C A145G C150A C169G, 0.00813.
As for C82U A111C A120U C150A U176C, the figure is 0.00573.
The result for C82U A111C A120U C150A U176A reads 0.00441.
In the case of C82U A111C A120U C150A U176G, the reverse-splicing fitness is 0.00295.
As for C82U A111C A120U A145G C150U U176G, the figure is 0.00287; as for C82U A111C A120U A145G C150U U176C, 0.0107; as for C82U A111C A120U A145G C150U U176A, 0.00854.
Take C82U A111C A145C C150G C169G: the reverse-splicing fitness amounted to 0.00696.
The result for C82U A111C A145C C150G C169A reads 0.00742.
As for C82U A111C A145C C150G C169U, the figure is 0.00936; as for C82U A111C A120U A145U C150G U176A, 0.00354; as for C82U A111C A120U A145U C150G U176C, 0.00509.
The result for C82U A111C A120U A145U C150G U176G reads 0.00316.
On to C82U A111C A120U A145G C150U C169U U176G, for which the reverse-splicing fitness is 0.00271.
Consider C82U A111C A120U A145G C150U C169U U176A, for which the reverse-splicing fitness was found to be 0.00522.
As for C82U A111C A120U A145G C150U C169U U176C, the figure is 0.00415; as for C82U A111C A145U C150A C169G, 0.00682; as for C82U A111C A145U C150A C169A, 0.00884.
As to C82U A111C A145U C150A C169U, the reverse-splicing fitness turned out to be 0.0103.
As for C82U A111C A145U C169G U176A, the figure is 0.0145.
The result for C82U A111C A120U A145G U176G reads 0.00307; that for C82U A111C A120U A145G U176A, 0.00722.
For C82U A111C A120U A145G U176C, the reverse-splicing fitness was determined as 0.0113.
Turning to C82U A111C A145U C150G C169A, the reverse-splicing fitness stood at 0.00756.
On to C82U A111C A145U C150G C169G, for which the reverse-splicing fitness was found to be 0.00721.
The result for C82U A111C A145U C150G C169U reads 0.00877.
As for C82U A111C A145C C150A C169U U176A, the figure is 0.0154; as for C82U A111C A145C C150A C169U U176C, 0.0106; as for C82U A111C A145C C150A C169U U176G, 0.00709.
The result for C82U A111C A145C C150A C169G U176G reads 0.00743; that for C82U A111C A145C C150A C169G U176A, 0.024.
Consider C82U A111C A145C C150A C169G U176C, for which the reverse-splicing fitness amounted to 0.0205.
The result for C82U A111C A145C C169A U176G reads 0.00613; that for C82U A111C A145C C169A U176A, 0.0127.
For C82U A111C A145C C169A U176C, the reverse-splicing fitness is 0.00939.
As for C82U A111C A145G C150G U176C, the figure is 0.0166.
As for C82U A111C A145G C150G U176A, the figure is 0.0105.
The result for C82U A111C A145G C150G U176G reads 0.00671.
For C82U A111C A120U A145U C169G, the reverse-splicing fitness was found to be 0.00369.
As for C82U A111C A120U A145U C169U, the figure is 0.00366.
